The text below walks through data of patent US20260217797A1 (Takeda / Millennium, published 2026).

What is called Kd is a measure of binding affinity in units of concentration. A lower Kd goes with higher affinity.

Assay [1] concerns the target SARS-CoV-2 RBD-mFc (SARS-CoV-2, UniProt P0DTC2 319-541). The assay can be described thus: Octet BLI, IgG, avid.
Assay [2] addresses SARS-CoV-2 Variant B.1.17 N501Y S1-His (SARS-CoV-2, UniProt P0DTC2 16-685). The assay can be described thus: Octet BLI, IgG, monovalent. Background: In BLI a coated tip is dipped into the sample, and binding shifts an interference pattern.
Assay [3] deals with SARS-CoV-2 Alpha (B.1.1.7) spike protein (on reporter virus particles) (SARS-CoV-2, UniProt P0DTC2 14-1273). As to the kind of experiment: cell-based or functional assay.
Assay [4] deals with SARS-CoV-2 Beta (B.1.351) spike protein (on reporter virus particles) (SARS-CoV-2, UniProt P0DTC2 14-1273). As to the kind of experiment: cell-based or functional assay.
Assay [5] deals with SARS-CoV-2 Omicron (B.1.529) spike protein (on reporter virus particles) (SARS-CoV-2, UniProt P0DTC2 14-1273). The assay can be described thus: cell-based or functional assay.
For assay [6], the target named is SARS-CoV-2 B.1.1.7 N501Y (Alpha) RBD (SARS-CoV-2, UniProt P0DTC2 319-541). As to the kind of experiment: Octet BLI single point, monovalent.
Assay [7] addresses SARS-CoV-2 B.1.351 (Beta) RBD (SARS-CoV-2, UniProt P0DTC2 319-541). The assay can be described thus: Octet BLI single point, monovalent.
Assay [8] deals with SARS-CoV-2 P.1 Spike (Gamma) (SARS-CoV-2, UniProt P0DTC2 16-1213). The assay can be described thus: Octet BLI single point, monovalent.

Substitutions are numbered along the chain they refer to.

B1: A-3 (antibody, V domains shown)
VH: EVQLLESGPGLVKPSETLSLTCTVSGGSINSRSYYWGWIRQPPGKGLEWIGSIYYSGSTYYNPSLKSRVTISVDTSKNQFSLKLSSVIAADTAVYFCARLEQWELPGGWFDPWGQGTLVTVSS
VL: NFMLTQPHSVSESPGKTVTISCTRSSGSIASNYVQWYQQRPGSAPTTVIYEDNQRPSGVPDRFSGSIDISSNSASLTISGLKTEDEADYSCQSSDSSNVVFGGGTKLTVL
Molecule B1 showed a Kd in assay [1] of 0.141 nM.

B2: A-1 (antibody, V domains shown)
VH: EVQLVESGGGVVQPGGSLRLSCAASGFAFSTYWMHWVRQAPGKGLVWVSRINGDGSGTNYADSVKGRFTISRDNAKSTLYLQMNSLRTEDTAVYYCTRTAGRGAYDFGRFDPWGQGTLVTVSS
VL: DIVLTQTPLSLPVTPGEPASISCRSSQSLLHSNGYNYLDWYLQKAGQSPQLLVFLGSNRASGVPDRFSGSASGTDFTLKISRVEAEDVGVYYCMQALQIPITFGQGTRLEIK
With B2, binding in assay [1] was put at a Kd of 0.089 nM.

B3: A-8 (antibody, V domains shown)
VH: EVQLLESGGGLVQPGGSLRLSCAASGFTFSSYAMSWVRQAPGKGLEWVSAISGSGNSTSYADSVKGRFTLSRDNSKNTLYLQMNSLRAEDTAIYYCAKGLGTRSFNWGAFDYWGQGTLVTVSS
VL: DIRVTQSPSSLSASVGDRVTITCRASQGISYSLAWYQQKPGKAPKLLLYAASNLESGVPSRFSGSGSGTDYTLTVSSLQPEDFATYYCQQYYSTPWTFGQGTKVEIK
As to B3, in assay [1], binding was put at a Kd of 0.106 nM.

B4: A-5 (antibody, V domains shown)
VH: QVQLVESGGGLIQPGESLRLSCAASEFIVSRNYMSWVRQAPGKGLEWVSVIYSGGNTYYADSVKGRFTISRDNSKNTLYLQMNSLRAEDTAVYYCARDLRGPGCFDFWGQGTTVTVSS
VL: DIQVTQSPSSLSASVGDRVTITCQASQDISNFLNWYQQKPGKAPKLLIYDASNLETGVPSRFSASGSGTEFTFTISSLQPEDIATYYCQQYDNLRVTFGGGTKLEIK
B4 displayed a dissociation constant (Kd) in assay [1] of 0.179 nM.

B5: A-7 (antibody, V domains shown)
VH: EVQLVESGAEVRKPGASVKVSCKASGYTFTFYYIHWVRQAPGQGLEWMGWISPISGATNYAQTFQGRVTMTRDTSITTAYMELSSLTSDDTAVYYCAREKYYDSSGSSDYWGQGTLVTVSS
VL: QPVLTQPPSVSAAPGQNVTIFCSGSSSNIGNNYVSWYQQLPGPAPKLLIYENNKRPSGIPDRFSGSKSGTSATLGITGLQTGDEADYYCGTWESSLSAPRVFGSGTKLTVL
B5: in assay [1], binding was put at a Kd of 0.0941 nM.

B6: A-19 (antibody, V domains shown)
VH: QVQLVQSGAEVKKPGESLKISCKGSGYSFTSYWIAWVRQMPGKGLEWMGIIYPGDSDTSYSPSFQGQVTISADKSISTAYLQWSSLKASDTAMYYCARGPNKYNWFDTWGQGTLVTVSS
VL: not shown
In assay [1], B6 displayed a Kd of 0.129 nM.

B7: A-2 (antibody, V domains shown)
VH: EVQLVESGGGLIQPGGSLRLSCAASGFTVSSNYMSWVRQAPGKGLEWVSIIYSGGSTYYADSVKGRFTISRDNSKNTLYLQMNSLRAEDTAVYYCARAPSGEYGDPIYYWGQGTLVTVSS
VL: QSVLTQPPSASASLGASVKLTCTLSSGHSTYTIAWHQQQPEKGPRYLMKLNSDGSHSKGDGIPDRFSGSSSGAERYLTISSLQSEDEADYYCQTWGTGNHWVFGGGTKLTVL
B7 came in with a Kd in assay [1] of 0.125 nM.

B8: A-11 (antibody, V domains shown)
VH: EVQLVESGAEVKKPGSSVMVSCKASGGTFSRYAISWVRQAPGQGLEWMGGIIPVFGIVHYAQKFQGRVTITADKSTSTAYMELSSLRSEDTAAYYCARDRQQQPSPYYYHGMDVWGQGTTVTVSS
VL: DIRLTQSPSSLSASVGDRVTITCQASQDISNYLNWYQQKPGKAPKLLIYDASNLETGVPTRFSGSGSGTDFTFTISSLQPEDIATYYCQQYDNLPLFGGGTKVEIK
B8: in assay [1], the Kd was determined as 0.173 nM.

B9: A-20 (antibody, V domains shown)
VH: QVQLVESGGGVVQPGRSLRLSCAASGFTFSNFAMHWVRQAPGKGLEWVAVILYDGINKYYADSVKGRFTISRGNSKNTLSLQMNSLRAEDTAVYYCARAQNYYDRSGTLQLDAFDIWGQGTLVTVSS
VL: AIQMTQSPSSLSASVGDRVTITCRASQGIRNDLGWYQQKPGKAPKLLIYAASSLQSGVPSRFSGSGSGTDFTLTISSLQPEDFATYYCLQDYNYPLTFGGGTKVEIK
B9: the Kd in assay [2] turned out to be 2.57 nM.

B10: A-20.1 (antibody, V domains shown)
VH: B9 VH
VL: B9 VL with R24V, A50E, Q55E
For the molecule B10, the affinity in assay [2], expressed as Kd, was 0.604 nM.

B11: A-12 (antibody, V domains shown)
VH: EVQLLESGGGLVQPGGSLRLSCAVSGLTVSSNYMSWVRQAPGKGLEWVSLIYSGGSTYYADSVKGRFTISRDNSKNTLYLQMNSLRAEDTAVYYCARGELGIPYGMDVWGQGTTVTVSS
VL: QSVLTQPPSVSAAPGQKVTISCSGGSSNVGDNFVSWYQQLPGTAPKLLIYDNNRRPSGIPDRFSGSKSGTSATLGITGLQTGDEADYYCGTWDSSLSAGVFGGGTKVTVL
B11 yielded a Kd in assay [1] of 0.151 nM.

B12: A-13 (antibody, V domains shown)
VH: QVQLVQSGAEVKKPGASVKVSCKASGYTFTDYYMHWVRQAPGQGLEWMGWINPNSGGTNSAQKFQGRVTMTRDTSINTAYMELSRLRSDDTAVYFCARDSHLAMVRGDFEYWGQGTLVTVSS
VL: QSVLTQPASVSGSPGQSITISCTGTSSDVESYNVVSWYQQHPGKAPKLMIYEVSKRPSGVSHRFSGSKSGNTASLTISGLQAEDESDYYCCSYAGNSTWVFGGGTKLTVL
B12 registered a Kd in assay [1] of 0.0959 nM.

B13: A-23 (antibody, V domains shown)
VH: EVQLVESGGGLVQPGRSLRLSCAASGFTFDDYAMHWVRQAPGKGLEWVSGISWNSGTIGYADSVKGRFIISRDNAKNSLYLQMNSLRGEDMALYYCGKDRKREDPSLGGMDVWGQGTTVTVSS
VL: SYVLTQPPSVSVAPGQTARITCGGNNIGSKSVHWYQQKPGQAPVLVVYDDTDRPSGIPERFSGSNSGNTATLTISRVEAGDEADYYCQVWDSSSDHYVFGTGTKVTVL
In assay [2], B13 displayed a Kd of 1.2 nM.

B14: A-23.2 (antibody, V domains shown)
VH: B13 VH with I51T, G97V
VL: B13 VL with S92V, H96S
In assay [2], B14 returned a Kd of 0.242 nM.

B15: A-23.3 (antibody, V domains shown)
VH: B13 VH with I51T, G97V
VL: B13 VL with H96D
B15: the Kd in assay [2] stood at 0.286 nM.

B16: A-16 (antibody, V domains shown)
VH: B13 VH with E1Q
VL: B13 VL with V3E, V105L
As for B16, the dissociation constant (Kd) came to 0.081 nM in assay [1], 4.62 nM in assay [6], 6.05 nM in assay [7] and 4.83 nM in assay [8]. Also, the results for the “PsV neutralization IC50” value in assay [3] and in assay [4] were 0.025 µg/mL and 0.103 µg/mL, respectively. In addition, the results for the “PsV neutralization IC90” value in assay [3] and in assay [4] were 0.329 µg/mL and 0.905 µg/mL, respectively. In addition, in assay [5], the “PsV IC50, Test 1” value was 0.19 nM.

B17: A-23.1 (antibody, V domains shown)
VH: B13 VH with F29I, S55G
VL: B13 VL with G23L, S93E
For B17, the Kd in assay [2] is 0.512 nM.

B18: A-14 (antibody, V domains shown)
VH: EVQLVESGGGVVQPGRSLRLSCAASGFTFSTYGMHWVRQAPGKGLEWVAVIWYDGSNKYYADSVKGRFTISRDNSKNTLYLQMNSLRAEDTAVYYCARSVDGDYLEYFQHWGQGTLVTVSS
VL: QPVLTQPRSVSGSPGQSVTISCTGTSSDVGGYNYVSWYQQHPGKAPKLMIYDVSKRPSGVPDRFSGSKSGNTASLTISGLQAEDEADYYCCSYAGGYTNYVFGTGTKLTVL
For the molecule B18, binding in assay [1] was put at a Kd of 0.158 nM.

B19: A-15 (antibody, V domains shown)
VH: QVQLVQSGAEVKKPGASVKVSCKASGYTSSSYYMHWVRQAPGQGPEWMGIINPGGTSTSYAQKFQGRVTMTRDTSTSTVYMELSSLRSEDTAVYYCAIGYCSTTSCRWGDAFDIWGQGTMVTVSS
VL: DIQVTQSPSSLSASVGDRVTITCRASQSISSYLNWYQQKPEKAPNLLIYAASSLQSGVPSRFSGSGSGTDFTLTISSLQPEDFATYYCQQSSTTPPTFGQGTKVEIK
As for B19, the Kd in assay [1] turned out to be 0.212 nM.

B20: A-4 (antibody, V domains shown)
VH: EVQLVESGGGLIQPGGSLTLSCAASGFTVSSNYMNWVRQAPGKGLEWVSVIYSGGSTYYADSVKGRFTISRDNSKNTLYLQMNSLRAEDTAVYYCAREVYSYFDYWGQGTLVTVSS
VL: DIQLTQSPSFLSASVGDRVTITCRASQGISSYLAWYQQKPGKAPKLLIYAASTLQSGVPSRFSGSGSGTEFTLTISRLQPEDLATYYCQQLNSYPPHTFGQGAKLEIK
Molecule B20 came in with a Kd in assay [1] of 0.663 nM.

B21: A-10 (antibody, V domains shown)
VH: QVQLVQSGGGVVQPGRSLRLSCAASGFTFSSYGMHWVRQAPGKGLEWVAVISYDGSNKYYTDSVKGRFTISRDNSKNTLYLQMNSLRAEDTAVYYCAKDLPREVYYDILTGYDNPYYYYGMDVWGQGTTVTVSS
VL: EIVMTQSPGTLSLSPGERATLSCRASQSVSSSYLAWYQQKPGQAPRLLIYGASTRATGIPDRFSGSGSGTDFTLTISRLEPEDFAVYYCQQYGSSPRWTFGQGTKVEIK
Turning to B21, binding in assay [1] was characterised by a dissociation constant (Kd) of 0.0931 nM.
